{"source": "patent US20180222952A1", "about": "(NEW YORK UNIVERSITY, published 2018)", "binders": {"B1": {"name": "GFP fused Pcgin/ND7 deletion mutant lacking aa523-534 (other)", "chain": "EKEVVSAQPATFLARSPHVGVKDVECGRDNRQGWACCPYRQGVCCADRRHCCPAGFRCAARGTKCLRREAPRWDAPLRDPALRQLL", "notes": "not shown: GFP tag"}, "B2": {"name": "GFP fused Pcgin/ND7 deletion mutant lacking aa535-539 (RDNRQ) (other)", "chain": "EKEVVSAQPATFLARSPHVGVKDVECGEGHFCHDNQTCCGWACCPYRQGVCCADRRHCCPAGFRCAARGTKCLRREAPRWDAPLRDPALRQLL", "notes": "also called ΔRDNRQ; ΔDNRQ; not shown: GFP tag"}, "B3": {"name": "Recombinant GBA (glucocerebrosidase; R&D Systems Cat. No. 7410-GH-010) (enzyme, UniProt P04062 40-536, looked up)", "chain": "ARPCIPKSFGYSSVVCVCNATYCDSFDPPTFPALGTFSRYESTRSGRRMELSMGPIQANHTGTGLLLTLQPEQKFQKVKGFGGAMTDAAALNILALSPPAQNLLLKSYFSEEGIGYNIIRVPMASCDFSIRTYTYADTPDDFQLHNFSLPEEDTKLKIPLIHRALQLAQRPVSLLASPWTSPTWLKTNGAVNGKGSLKGQPGDIYHQTWARYFVKFLDAYAEHKLQFWAVTAENEPSAGLLSGYPFQCLGFTPEHQRDFIARDLGPTLANSTHHNVRLLMLDDQRLLLPHWAKVVLTDPEAAKYVHGIAVHWYLDFLAPAKATLGETHRLFPNTMLFASEACVGSKFWEQSVRLGSWDRGMQYSHSIITNLLYHVVGWTDWNLALNPEGGPNWVRNFVDSPIIVDITKDTFYKQPMFYHLGHFSKFIPEGSQRVGLVASQKNDLDAVALMHPDGSAVVVVLNRSSKDVPLTIKDPAVGFLETISPGYSIHTYLWRRQ", "modifications": "biotin-labeled (EZ-Link Sulfo-NHS-LC-Biotin) in the solid phase binding assays; unlabeled in SPR", "notes": "also called GCase; biotin-labeled GBA"}, "B4": {"name": "Recombinant Pcgin, His-tagged, expressed in bacteria (other)", "chain": "EKEVVSAQPATFLARSPHVGVKDVECGEGHFCHDNQTCCRDNRQGWACCPYRQGVCCADRRHCCPAGFRCAARGTKCLRREAPRWDAPLRDPALRQLL", "notes": "also called ND7; PGRN ND7 fragment; not shown: His tag"}, "B5": {"name": "Recombinant His-tag PGRN protein (full length progranulin) (ligand)", "chain": "TRCPDGQFCPVACCLDPGGASYSCCRPLLDKWPTTLSRHLGGPCQVDAHCSAGHSCIFTVSGTSSCCPFPEAVACGDGHHCCPRGFHCSADGRSCFQRSGNNSVGAIQCPDSQFECPDFSTCCVMVDGSWGCCPMPQASCCEDRVHCCPHGAFCDLVHTRCITPTGTHPLAKKLPAQRTNRAVALSSSVMCPDARSRCPDGSTCCELPSGKYGCCPMPNATCCSDHLHCCPQDTVCDLIQSKCLSKENATTDLLTKLPAHTVGDVKCDMEVSCPDGYTCCRLQSGAWGCCPFTQAVCCEDHIHCCPAGFTCDTQKGTCEQGPHQVPWMEKAPAHLSLPDPQALKRDVPCDNVSSCPSSDTCCQLTSGEWGCCPIPEAVCCSDHQHCCPQGYTCVAEGQCQRGSEIVAGLEKMPARRASLSHPRDIGCDQHTSCPVGQTCCPSLGGSWACCQLPHAVCCEDRQHCCPAGYTCNVKARSCEKEVVSAQPATFLARSPHVGVKDVECGEGHFCHDNQTCCRDNRQGWACCPYRQGVCCADRRHCCPAGFRCAARGTKCLRREAPRWDAPLRDPALRQLL", "notes": "also called rPGRN; His-tagged PGRN; not shown: His tag"}, "B6": {"name": "Recombinant LIMP2 (lysosomal integral membrane protein 2; R&D Systems Cat. No. 1966-LM-050) (receptor, UniProt Q14108 27-432, looked up)", "chain": "RVFQKAVDQSIEKKIVLRNGTEAFDSWEKPPLPVYTQFYFFNVTNPEEILRGETPRVEEVGPYTYRELRNKANIQFGDNGTTISAVSNKAYVFERDQSVGDPKIDLIRTLNIPVLTVIEWSQVHFLREIIEAMLKAYQQKLFVTHTVDELLWGYKDEILSLIHVFRPDISPYFGLFYEKNGTNDGDYVFLTGEDSYLNFTKIVEWNGKTSLDWWITDKCNMINGTDGDSFHPLITKDEVLYVFPSDFCRSVYITFSDYESVQGLPAFRYKVPAEILANTSDNAGFCIPEGNCLGSGVLNVSICKNGAPIIMSFPHFYQADERFVSAIEGMHPNQEDHETFVDINPLTGIILKAAKRFQINIYVKKLDDFVETGDIRTMVFPVMYLNESVHIDKETASRLKSMINTT", "modifications": "biotin-labeled (EZ-Link Sulfo-NHS-LC-Biotin)", "notes": "also called biotin-labeled LIMP2"}}, "key": {"[1]": {"molecular_target": "T1, RFP-fused GBA (encoded by pDsRed-GBA) (UniProt P04062 40-536)", "T1 construct": "also called RFP fused GCase; GCase; not shown: RFP (DsRed) tag", "T1 sequence (looked up)": "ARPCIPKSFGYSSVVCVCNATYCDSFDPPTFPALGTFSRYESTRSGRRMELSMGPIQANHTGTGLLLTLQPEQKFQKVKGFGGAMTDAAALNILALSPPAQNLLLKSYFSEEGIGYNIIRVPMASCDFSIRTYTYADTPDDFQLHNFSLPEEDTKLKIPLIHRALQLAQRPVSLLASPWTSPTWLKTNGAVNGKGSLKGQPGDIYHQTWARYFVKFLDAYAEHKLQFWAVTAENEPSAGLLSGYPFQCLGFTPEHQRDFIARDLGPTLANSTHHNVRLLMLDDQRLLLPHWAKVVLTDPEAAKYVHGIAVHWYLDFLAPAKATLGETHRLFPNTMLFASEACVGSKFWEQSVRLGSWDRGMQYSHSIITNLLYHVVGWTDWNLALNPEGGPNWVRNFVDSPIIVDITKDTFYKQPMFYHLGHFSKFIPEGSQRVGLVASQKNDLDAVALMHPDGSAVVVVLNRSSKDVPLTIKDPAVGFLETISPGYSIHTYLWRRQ", "assay": "co-IP from co-transfected 293T cells: IP anti-GFP, IB anti-RFP", "from_the_text": "(§1) FIG. 8 depicts that Pcgin/ND7 fragment of PGRN has binding motifs for GCase and HSP70. (A) Scheme of Pcgin amino acid structure and its deletion mutants. (B) Co-IP assays for examining the binding of Pcgin and its mutants to GCase and HSP70. 293T cells were transfected with plasmids encoding either GFP fused Pcgin or its mutants, together with plasmids encoding RFP fused GCase and HSP70, and the protein complexes were immunoprecipitated with GFP antibody and probed with RFP or HSP70 antibodies respectively. […] The result is representative of three independent experiments. (C) Structure and sequence of Pcgin/ND7 fragment of PGRN. […] Sequence of Pcgin (SEQ ID NO:4) is shown in the bottom panel. Linker regions and Gm E are highlighted in green and red, respectively. Binding sites of GCase, HSP70, and Sortilin are indicated."}, "[2]": {"molecular_target": "HSP70 expressed from a plasmid in transfected 293T cells (UniProt P0DMV8 1-641)", "sequence (P0DMV8 whole entry)": "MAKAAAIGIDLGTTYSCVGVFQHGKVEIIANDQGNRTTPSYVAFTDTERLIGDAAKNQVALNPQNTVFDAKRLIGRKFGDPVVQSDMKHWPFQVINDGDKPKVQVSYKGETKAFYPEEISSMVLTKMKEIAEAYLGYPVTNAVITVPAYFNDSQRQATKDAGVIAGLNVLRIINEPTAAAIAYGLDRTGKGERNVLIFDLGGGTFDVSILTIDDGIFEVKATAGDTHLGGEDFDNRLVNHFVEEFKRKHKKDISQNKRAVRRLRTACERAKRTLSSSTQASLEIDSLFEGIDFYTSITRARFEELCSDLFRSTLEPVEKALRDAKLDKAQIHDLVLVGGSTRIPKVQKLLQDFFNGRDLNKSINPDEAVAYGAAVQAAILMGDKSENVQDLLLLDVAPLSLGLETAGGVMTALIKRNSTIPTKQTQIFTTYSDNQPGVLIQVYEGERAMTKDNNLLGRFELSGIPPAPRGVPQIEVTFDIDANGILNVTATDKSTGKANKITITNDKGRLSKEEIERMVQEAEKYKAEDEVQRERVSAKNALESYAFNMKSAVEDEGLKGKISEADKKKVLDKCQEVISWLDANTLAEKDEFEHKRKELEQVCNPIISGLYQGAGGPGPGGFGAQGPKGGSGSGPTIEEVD", "assay": "co-IP from co-transfected 293T cells: IP anti-GFP, IB anti-HSP70", "from_the_text": "as §1"}, "[3]": {"molecular_target": "B5", "assay": "SPR, SensiQ Pioneer, GBA immobilised, PGRN injected (OneStep)", "procedure": "Surface Plasmon Resonance (SPR): All SPR experiments were done by SensiQ Technologies Inc. (Oklahoma City, Okla.) by using SensiQ Pioneer at a controlled analysis temperature of 25° C., and samples in the instrument sample racks were maintained at 18° C. The running buffer throughout the immobilization and the assay consisted of 10 mM HEPES, 150 mM NaCl, 0.005% Tween 20. Buffer pH was adjusted to pH 7.4, 6.5, 6.0 or 5.5 for individual runs, and for each pH the running buffer was used to prepare PGRN samples and sucrose diffusion standards.\nThe assay of PGRN was performed with a total of five buffer blank injections and two replicates of 200 nM PGRN, all of which were given a 1 hour dissociation time. The OneStep™ injection was used for this assay to determine kinetic rate constants and the equilibrium dissociation constant from a single gradient inject. Two injections of 3% sucrose in running buffer were performed to serve as a diffusion standard.\nData was analyzed using the QDat Analysis Software (SensiQ Technologies and BioLogic Software). All data were double referenced to a reference channel (channel 2) and buffer blanks. The average signal of the buffer blanks was used to subtract injection artifacts. Referenced SPR data from the analysis channels were model fit to ascertain ka, kd, and KD for the interactions."}, "[4]": {"molecular_target": "B3", "assay": "solid phase binding, Pcgin coated, biotin-labeled GCase, ELISA-based detection", "procedure": "(§2) Pcgin was coated on a 96-well plate and incubated with biotin-labeled GCase, HSP70, and Sortilin (serving as a positive control) respectively. The direct binding was detected by ELISA-based method.\n(§3) Pcgin was then expressed in bacteria and purified as a His-tagged protein. The purity was examined by Coomassie Blue staining and confirmed by Western blotting with His probe (FIG. 10). […] Although Pcgin retained GCase and HSP70 binding activity of PGRN, it lacked PGRN's oncogenic activity, including PGRN-activated oncogenic signaling and cell proliferation (data not shown)."}, "[5]": {"molecular_target": "T2, Recombinant sortilin (R&D Systems Cat. No. 3154-ST-050) (UniProt Q99523 78-755, biotin-labeled in the solid phase binding assay of FIG. 11; unlabeled in SPR)", "T2 construct": "also called biotin-labeled Sortilin", "T2 sequence (looked up)": "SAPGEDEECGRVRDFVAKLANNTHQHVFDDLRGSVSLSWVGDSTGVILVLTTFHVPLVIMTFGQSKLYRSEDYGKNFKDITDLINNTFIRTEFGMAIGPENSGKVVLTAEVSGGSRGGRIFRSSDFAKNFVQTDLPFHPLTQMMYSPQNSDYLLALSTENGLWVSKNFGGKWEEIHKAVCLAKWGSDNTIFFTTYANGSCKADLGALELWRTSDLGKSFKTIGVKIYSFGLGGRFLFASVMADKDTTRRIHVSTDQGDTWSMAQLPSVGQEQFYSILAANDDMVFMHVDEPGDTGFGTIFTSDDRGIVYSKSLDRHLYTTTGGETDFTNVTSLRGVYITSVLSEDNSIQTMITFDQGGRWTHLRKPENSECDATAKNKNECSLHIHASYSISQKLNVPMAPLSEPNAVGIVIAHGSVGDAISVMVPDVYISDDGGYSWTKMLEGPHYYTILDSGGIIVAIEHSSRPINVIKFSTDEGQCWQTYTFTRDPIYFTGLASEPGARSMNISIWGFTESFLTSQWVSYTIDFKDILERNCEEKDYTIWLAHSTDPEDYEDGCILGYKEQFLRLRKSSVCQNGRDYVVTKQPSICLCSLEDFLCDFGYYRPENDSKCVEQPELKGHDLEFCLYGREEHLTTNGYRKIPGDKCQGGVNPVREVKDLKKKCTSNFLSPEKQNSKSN", "assay": "solid phase binding, Pcgin coated, biotin-labeled sortilin (positive control), ELISA-based detection", "procedure": "as §2, §3"}, "[6]": {"molecular_target": "T2, Recombinant sortilin (R&D Systems Cat. …)", "assay": "SPR, SensiQ Pioneer, sortilin immobilised, PGRN injected (OneStep)"}, "[7]": {"molecular_target": "B5", "assay": "solid phase binding, PGRN coated, biotin-labeled LIMP2", "procedure": "Solid phase binding: 0.1, 1, 2, and 5 μg/ml PGRN proteins were coated in 96-wells with triplicate wells in PBS for overnight. The plate was washed with 0.1% tween/PBS five times and then blocked with 2% BSA/PBS solution. Two μg BSA, LIMP2 and GBA protein were labeled with biotin followed the protocol of EZ-Link Sulfo-NHS-LC-Biotin and Biotinylation Kits (Thermo Scientific). Biotin-labeled LIMP2, GBA or BSA were added in the plate and incubate for 2 hours. Wash with 0.1% tween/PBS, and coated with streptavidin-HRP (1:2000 dilution) solution for 1 hour. After washing add t h e substrate and stop the reaction with […] H₂SO₄. Read result at UV 450 nm in plate reader."}}}
{"binder": "B1", "values": [{"measurement": "binding result", "setting": "[1]", "result": "no binding"}]}
{"binder": "B2", "values": [{"measurement": "binding result", "setting": "[2]", "result": "no binding"}]}
{"binder": "B3", "values": [{"measurement": "Kd", "setting": "[3]", "result": 0.71, "unit": "nM"}]}
{"binder": "B4", "values": [{"measurement": "binding result", "setting": "[4]", "result": "binds"}, {"measurement": "binding result", "setting": "[5]", "result": "binds"}]}
{"binder": "B5", "values": [{"measurement": "Kd", "setting": "[6]", "result": 3.67, "unit": "nM"}]}
{"binder": "B6", "values": [{"measurement": "binding result", "setting": "[7]", "result": "no binding"}]}
